In PMC12095075 one finds Kd data, which are given here for 2 substances.

The target in this data set is HIF2A N-terminal region (bHLH-PAS);BMAL1 N-terminal region (bHLH-PAS) (mouse;mouse) (UniProt P97481+Q9WTL8). The data set is described as follows: SPR. Particulars: 1:1 fit, error is fit error, SPR: 20 mM MES pH 5.5, 300 mM NaCl, 0.05% Tween-20, 0.02% BSA, EMSA: 10 mM MES pH 6.0, 50 mM KCl, 1 mM DTT, 2.5% glycerol, 0.05% NP-40, 5 mM MgCl2, room ….

pKd: −log10 of the molar value.

The pKd is −log10 of the Kd, conventionally taken in molar units.

Sequence of HIF2A N-terminal region (bHLH-PAS);BMAL1 N-terminal region (bHLH-PAS) (mouse;mouse) (P97481 3-361, chain 1 of 2): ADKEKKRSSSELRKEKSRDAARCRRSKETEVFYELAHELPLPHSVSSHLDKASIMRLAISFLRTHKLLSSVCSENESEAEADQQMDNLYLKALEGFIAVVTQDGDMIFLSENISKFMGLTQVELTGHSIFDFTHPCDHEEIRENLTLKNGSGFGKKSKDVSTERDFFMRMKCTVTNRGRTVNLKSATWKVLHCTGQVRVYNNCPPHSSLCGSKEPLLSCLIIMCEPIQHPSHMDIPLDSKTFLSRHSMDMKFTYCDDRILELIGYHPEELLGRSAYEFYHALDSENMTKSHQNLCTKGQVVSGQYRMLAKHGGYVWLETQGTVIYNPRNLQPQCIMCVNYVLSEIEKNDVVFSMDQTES
Sequence of HIF2A N-terminal region (bHLH-PAS);BMAL1 N-terminal region (bHLH-PAS) (mouse;mouse) (Q9WTL8 68-488, chain 2 of 2): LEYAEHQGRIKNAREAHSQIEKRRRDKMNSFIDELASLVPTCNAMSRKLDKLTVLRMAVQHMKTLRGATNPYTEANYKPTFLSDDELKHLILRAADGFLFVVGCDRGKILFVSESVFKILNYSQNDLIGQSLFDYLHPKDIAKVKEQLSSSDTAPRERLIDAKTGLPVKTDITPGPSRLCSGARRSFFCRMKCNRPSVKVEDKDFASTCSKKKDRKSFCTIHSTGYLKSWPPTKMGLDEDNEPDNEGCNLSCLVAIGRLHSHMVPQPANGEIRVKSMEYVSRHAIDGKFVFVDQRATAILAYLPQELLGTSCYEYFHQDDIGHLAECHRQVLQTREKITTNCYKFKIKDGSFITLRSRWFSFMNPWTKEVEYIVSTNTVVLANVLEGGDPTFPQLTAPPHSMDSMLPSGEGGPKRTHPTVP

22-bp E-box duplex, SPR: under “ka 2.10e5 1/(M*s), kd 7.85e-4 1/s”, the pKd is 8.43.
22-bp HRE duplex, SPR showed a pKd (ka 1.75e5 1/(M*s), kd 8.45e-4 1/s) of 8.32.
